Laboratory results: publication PMC5737688
Like-named read-outs stand apart in the source and are kept apart here.

Experiments:
[1] = biological target: GAN·GINS complex of Thermococcus kodakarensis, formed on the SPR chip from the purified recombinant proteins (Thermococcus kodakarensis); experiment: SPR
[2] = biological target: GAN·GINS complex of Thermococcus kodakarensis, formed on the SPR chip from the purified recombinant proteins (Thermococcus kodakarensis); experiment: SPR; remark: listed apart in the source

Kd [1]: 180 nM | Kd [2]: 190 nM
Substance: MCM3 (minichromosome maintenance helicase) of Thermococcus kodakarensis, homohexamer, recombinant (enzyme)
